Source: publication PMC11417369, “DNA sequence and chromatin differentiate sequence-specific transcription factor binding in the human malaria parasite Plasmodium falciparum”

T1: PF3D7_0420300 D1 (Plasmodium falciparum, UniProt Q8I1N6 1956-2015)
T1 sequence: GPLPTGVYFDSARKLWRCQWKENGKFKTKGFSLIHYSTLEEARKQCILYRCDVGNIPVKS

B1: CACACA_site518 (dsDNA)
DNA 1: ATAATTAACAAATACACACACACACCCCCACAAAAA
DNA 2: TTTTTGTGGGGGTGTGTGTGTGTATTTGTTAATTAT
B2: CACACA_site466 (dsDNA)
DNA 1: CAAAAAAAATAAAACACACACACAAAAAAATAAAAA
DNA 2: TTTTTATTTTTTTGTGTGTGTGTTTTATTTTTTTTG
B3: CACACA_site6531 (dsDNA)
DNA 1: AATAAATTTAGACACACACACACATATAAATAAATA
DNA 2: TATTTATTTATATGTGTGTGTGTGTCTAAATTTATT
B4: CACACA_site5102 (dsDNA)
DNA 1: GAGAAAAATAAATACACACACATAAATAAATACATA
DNA 2: TATGTATTTATTTATGTGTGTGTATTTATTTTTCTC
B5: CACACA_site6496 (dsDNA)
DNA 1: TATTAAACTTGACACACACACACACGCATATATAAA
DNA 2: TTTATATATGCGTGTGTGTGTGTGTCAAGTTTAATA
B6: CACACA_site2625 (dsDNA)
DNA 1: AAATAAATGAAACACACACACACAAAAAAAAAAAAC
DNA 2: GTTTTTTTTTTTTGTGTGTGTGTGTTTCATTTATTT
B7: CACACA_site7644 (dsDNA)
DNA 1: AAAAAATACAGACACACACACACACGCATATAAATA
DNA 2: TATTTATATGCGTGTGTGTGTGTGTCTGTATTTTTT
B8: CACACA_site638 (dsDNA)
DNA 1: AATACACGCAAACACACACACACACCCACATATATA
DNA 2: TATATATGTGGGTGTGTGTGTGTGTTTGCGTGTATT
B9: CACACA_site7104 (dsDNA)
DNA 1: AACACGCGCAGACACACACACACACGCACATATATA
DNA 2: TATATATGTGCGTGTGTGTGTGTGTCTGCGCGTGTT
B10: CACACA_site1736 (dsDNA)
DNA 1: ATAGTATACAGACACACACACACACCCATATATATA
DNA 2: TATATATATGGGTGTGTGTGTGTGTCTGTATACTAT
B11: CACACA_site2752 (dsDNA)
DNA 1: CAAACATATTAATGTACACACACCCACCCACAAACA
DNA 2: TGTTTGTGGGTGGGTGTGTGTACATTAATATGTTTG
B12: CACACA_site7364 (dsDNA)
DNA 1: AAAAAAAAAAAAAACACACACACACGCATACACATA
DNA 2: TATGTGTATGCGTGTGTGTGTGTTTTTTTTTTTTTT
B13: CACACA_site240 (dsDNA)
DNA 1: TTTATTTATTAATACACACACACACCCCCACAAAAT
DNA 2: ATTTTGTGGGGGTGTGTGTGTGTATTAATAAATAAA
B14: CACACA_site6305 (dsDNA)
DNA 1: CACACGCACGAACACACACACACACGCACGCACATA
DNA 2: TATGTGCGTGCGTGTGTGTGTGTGTTCGTGCGTGTG
B15: CACACA_site6306 (dsDNA)
DNA 1: AGCACACGCAGACACACACACACACGCACACGCACA
DNA 2: TGTGCGTGTGCGTGTGTGTGTGTGTCTGCGTGTGCT
B16: CACACA_site6309 (dsDNA)
DNA 1: ACATCAAGCAGACACACACACACACGCACACGCACA
DNA 2: TGTGCGTGTGCGTGTGTGTGTGTGTCTGCTTGATGT
B17: CACACA_negctrl_site899 (dsDNA)
DNA 1: AATAAATAAATAAATATATATATATATATATATATG
DNA 2: CATATATATATATATATATATATTTATTTATTTATT
B18: CACACA_site366 (dsDNA)
DNA 1: CACACCCACCAACACACACACACACCCACCCATATA
DNA 2: TATATGGGTGGGTGTGTGTGTGTGTTGGTGGGTGTG
B19: CACACA_site2917 (dsDNA)
DNA 1: ACCATACATACATACACACACACACCCATATATATA
DNA 2: TATATATATGGGTGTGTGTGTGTATGTATGTATGGT
B20: CACACA_site370 (dsDNA)
DNA 1: ATCAAGCACCAACACACACACACACCCCCACCCACA
DNA 2: TGTGGGTGGGGGTGTGTGTGTGTGTTGGTGCTTGAT
B21: CACACA_site8069 (dsDNA)
DNA 1: ACATAATTAACAAATACACACACACCCACCCACAAA
DNA 2: TTTGTGGGTGGGTGTGTGTGTATTTGTTAATTATGT
B22: CACACA_site492 (dsDNA)
DNA 1: TAAACATACATATACACACACACACCCACACCCACA
DNA 2: TGTGGGTGTGGGTGTGTGTGTGTATATGTATGTTTA
B23: CACACA_site6342 (dsDNA)
DNA 1: AAAAAAAACAGACACACACACAAATATTTATATATC
DNA 2: GATATATAAATATTTGTGTGTGTGTCTGTTTTTTTT
B24: CACACA_site7867 (dsDNA)
DNA 1: AAGGATATAACATACACACACACACGGATATAAATA
DNA 2: TATTTATATCCGTGTGTGTGTGTATGTTATATCCTT
B25: CACACA_site8742 (dsDNA)
DNA 1: TTATGTTCTTTAAAACCACACACCCCCCAACCCCCC
DNA 2: GGGGGGTTGGGGGGTGTGTGGTTTTAAAGAACATAA
B26: CACACA_site639 (dsDNA)
DNA 1: AAAATACACGCATACACACACACACCCACCCATATA
DNA 2: TATATGGGTGGGTGTGTGTGTGTATGCGTGTATTTT
B27: CACACA_site5271 (dsDNA)
DNA 1: TATAAATACAGATACACACACACACCGATATATATA
DNA 2: TATATATATCGGTGTGTGTGTGTATCTGTATTTATA
B28: CACACA_site9187 (dsDNA)
DNA 1: AAAAAAAAAATACATACACACACACCCACCCATATA
DNA 2: TATATGGGTGGGTGTGTGTGTATGTATTTTTTTTTT
B29: CACACA_site6364 (dsDNA)
DNA 1: ATAATCCTTAGACACACACACACACGAATAAATAAA
DNA 2: TTTATTTATTCGTGTGTGTGTGTGTCTAAGGATTAT
B30: CACACA_site8057 (dsDNA)
DNA 1: ATTAAACATACATATACACACACACCCACCCACCCA
DNA 2: TGGGTGGGTGGGTGTGTGTGTATATGTATGTTTAAT
B31: CACACA_site8059 (dsDNA)
DNA 1: CATACATATAAACACACACACACACCCACCCACAAA
DNA 2: TTTGTGGGTGGGTGTGTGTGTGTGTTTATATGTATG
B32: CACACA_site494 (dsDNA)
DNA 1: CATACATAGAAACACACACACACACCCACCCACAAA
DNA 2: TTTGTGGGTGGGTGTGTGTGTGTGTTTCTATGTATG

Molecular target: T1, PF3D7_0420300 D1
Test: gcPBM; about 25 ug protein; PBS, 1% milk, 0.2 mg/ml BSA, salmon testes DNA, 0.03% Triton X-100
Conditions: tags: N-terminal GST (pGEX-4T-1), kept; label: surface-attached array probe

Binder | binding signal
B1 | 10.6 ln median PBM intensity, better of two orientations
B2 | 10.2 ln median PBM intensity, better of two orientations
B3 | 10.2 ln median PBM intensity, better of two orientations
B4 | 10.2 ln median PBM intensity, better of two orientations
B5 | 10.3 ln median PBM intensity, better of two orientations
B6 | 10.5 ln median PBM intensity, better of two orientations
B7 | 10.2 ln median PBM intensity, better of two orientations
B8 | 10.5 ln median PBM intensity, better of two orientations
B9 | 10.5 ln median PBM intensity, better of two orientations
B10 | 10.4 ln median PBM intensity, better of two orientations
B11 | 10.4 ln median PBM intensity, better of two orientations
B12 | 10.2 ln median PBM intensity, better of two orientations
B13 | 10.5 ln median PBM intensity, better of two orientations
B14 | 10.4 ln median PBM intensity, better of two orientations
B15 | 10.5 ln median PBM intensity, better of two orientations
B16 | 10.4 ln median PBM intensity, better of two orientations

Binder | binding signal
B17 | 9.11 ln median PBM intensity, better of two orientations
B18 | 10.4 ln median PBM intensity, better of two orientations
B19 | 10.4 ln median PBM intensity, better of two orientations
B20 | 10.8 ln median PBM intensity, better of two orientations
B21 | 10.5 ln median PBM intensity, better of two orientations
B22 | 10.4 ln median PBM intensity, better of two orientations
B23 | 10.2 ln median PBM intensity, better of two orientations
B24 | 10.4 ln median PBM intensity, better of two orientations
B25 | 10.4 ln median PBM intensity, better of two orientations
B26 | 10.5 ln median PBM intensity, better of two orientations
B27 | 10.2 ln median PBM intensity, better of two orientations
B28 | 10.4 ln median PBM intensity, better of two orientations
B29 | 10.3 ln median PBM intensity, better of two orientations
B30 | 10.9 ln median PBM intensity, better of two orientations
B31 | 10.5 ln median PBM intensity, better of two orientations
B32 | 10.4 ln median PBM intensity, better of two orientations
